Test results published in the nanobody polyreactivity screen of Harvey et al. (2022).

assay: yeast display, Sf9 membrane polyspecificity reagent, FACS + sequencing; frameworks hold sequencing errors
Summary of the method: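 Nanobodies came from a synthetic yeast display library in Saccharomyces cerevisiae BJ5465, induced with galactose for 36–48 hours and stained for 1 hour at 4 °C with 10% biotinylated, detergent-solubilized Sf9 membrane reagent. Cells were enriched on streptavidin microbeads and then FACS-sorted, with low and high (top ~1%) gates set on anti-HA fluorescence for expression and streptavidin fluorescence for reagent binding. Each polyreactivity label reflects the gate a clone came from. Genes were amplified by colony PCR, sequenced by MiSeq 2 × 250 and filtered by CDR length.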

Row | Sequence | polyreactivity (PSR sort gate)
1 | QDQLVESGGGLVQAGGSLRLSCAASGRTFVTYAMGWYRQAPGKEREFVAAITWSTGTSTYYADSVKGRFTISRDNAKNTVYLQMNSLKPEDTAGYYCAAYYVVHFGYWGQGTQVTVSS | low polyreactivity
2 | QDQLVESGGGLVQAGGSLRLSCAASGRTFYANAMGWNRQAPGKERELVAAISSSDDITYYADSVKGRFTNSRDNAKNTVYLQINSMKPEDTAVYYCAAEEYIVTYSGFWQEYEYWGQGTQVTVSS | high polyreactivity
3 | QDQLVESGGGLVQAGGSLRLSCAASGRTFYCYAMGGYRQAPGKDRELVAAISSGDITSYADSVKGRFTISRDNAKNTVYLQMNSVKPEDTAVYYCAAEVVAWSLYEDFKTYDYWGQGTQVTVSS | low polyreactivity
4 | QDQLVESGGGLVQAGGSLRLSCAASGRTFYRYTMGWYRQAPGKESELVAGISWRGGTTYYADSVKGRFTISRDNAKNTVYLQMNSLKPEDTAVYYCAAKAGYRYGSLAYYKYDYWGQGTQVTVSS | high polyreactivity
5 | QDQLVESGGGLVQAGGSLRLSCAASGRTLWRNTMGWYRQAPGKERELVAAITTRGGSTYYADSVKGRFTISRDNAKNTVYLQLNSLKPEDTAVYYCAARTYTGEGSGRFYYWGQGTQVTVSS | high polyreactivity
6 | QDQLVESGGGLVQAGGSLRLSCAASGRTSIWNAMGWYRQAPGKERELVASISWSGGSTYYADSVKGRFTISRDNAKNTVYLQMNSLKPEDTAVYYCAKTAYFLVFNEHLHKKRYDSWGQGTQVTVSS | low polyreactivity
7 | QDQLVESGGGLVQAGGSLRLSCAASGSIFAGYAMGWYRQAPGKESELVAAITSGGRTYYADSVKGRFTISRDNAKNTVYLQMNSLKPEDTAVYYCAKRWYTKTGYDYWGQGTQVTVSS | high polyreactivity
8 | QDQLVESGGGLVQAGGSLRLSCAASGSIFAWNAMGWYRQAPGKERELVAVITSGGSTNYADSVKGRFTISRDNAKNTVYLQMNSLKPEDTAVYYCAARSWVYSVIGDYWGQVTQVTVSS | low polyreactivity
9 | QDQLVESGGGLVQAGGSLRLSCAASGSIFFTNDMGWYRQAHGKEREFVAAITGGGGSTYYADSVKGRFTISRDNAKNTVYLQMNSLKPEDTAVYYCATKAKPRSGYNYWGQGTQVTVSS | low polyreactivity
10 | QDQLVESGGGLVQAGGSLRLSCAASGSIFGGYGMGWYRQAPGKERELVAAITSGSSTYYADSVKGRFTISRDNAKNTVYLQMNSLKPEDTAVYYCAARPYPHSAYQGDYWGRGTQVTVSS | low polyreactivity
11 | QDQLVESGGGLVQAGGSLRLSCAASGSIFGSYAMGWYRQAPGKEMELVAAISYSGASTYYADSVKGRFTISRDNAKNTVYLQMNSLKPEDTAVYYCNKDPRWRRFNYWGQGTQVTVSS | high polyreactivity
12 | QDQLVESGGGLVQAGGSLRLSCAASGSIFHGYGRGWYRQAPGKERELVASITWIGGDTYYADSVKGRFTISRDNPKNTVYLQMNSLKPEDTAVYYCNAEWVVTYIYDYWGQGTQVTVSS | low polyreactivity
13 | QDQLVESGGGLVQAGGSLRLSCAASGSIFIQYAMGWYRQAPGKERQFVAAITSGGGSTYYADSVKGRFTISRDNAMNTVYLQLNSLKPEDTAVYYCAVDRTRRPALPFVTLDRGYWGQGTQVTVSS | low polyreactivity
14 | QDQLVESGGGLVQAGGSLRLSCAASGSIFPDYVMGWYRQAPGKERELVAAISASGGSTYYADSVKGRFTISRDNEKNTVYLKMNSLKPEDTAVYYCNASPKTYLRRKYDYWGQGTQVTVSS | high polyreactivity
15 | QDQLVESGGGLVQAGGSLRLSCAASGSIFPSNTMGWYRQAPGKERELVAAITGSGGSTYYADSVKGRFTISRDNAKNTVYLQMNSLKPEDTAVYYCAARYRVDGVKYGYWGQGTQVTVSS | high polyreactivity
16 | QDQLVESGGGLVQAGGSLRLSCAASGSIFRVYAMGRYRQAPGKERELVAAISSIVGSTYYADSVKGRFTISRDNAKNSVYLQMNSLKPEDTAVYDCNKEGTWPRTGSEYDSWGQGSQVTVSS | low polyreactivity
17 | QDQLVESGGGLVQAGGSLRLSCAASGSIFSFYAMGWYSQATGKERELVAGIRWRGGTSTFYADSVKGRFTISRDNEKNTVYLQMNSLNPEDTAVYYCADKRRTGGNGYWGQGTQVTVSS | high polyreactivity
18 | QDQLVESGGGLVQAGGSLRLSCAASGSIFTYNAMGWYRPAPGKERELVAAINTSGSTNYADSVKGRFTISRDNAKNTVYLQKYSLKPEDTAVYYCAAGIVVTVYDYWRQGTQVTVSS | low polyreactivity
19 | QDQLVESGGGLVQAGGSLRLSCAASGSIFVNNAMGWYRQAPGKERELVAAISRSGGNTYYADSVKGRFTISRDNAKNTVYLQMNSLKPEDTAVYYCAADFRGRYGYWGQGTQVTVSS | high polyreactivity
20 | QDQLVESGGGLVQAGGSLRLSCAASGSIFWYYGMGWYRQAPGKERELVAAISSGGSTNYADSVKGRFAISRDNAKNTVYLQMNSLKPEDTAVYYCAVRFTFPRYPASYSRYYYWGQGTQVTVSS | high polyreactivity
21 | QDQLVESGGGLVQAGGSLRLSCAASGSIFYAYTMGWYRQAPGKEMELVASITKSGGSTYYADSVKGRFTISRDNAKNTVYLQMNSLKPEDTAVYYCAAVVGRNRTRSYGYWGQGTQVTVSS | high polyreactivity
22 | QDQLVESGGGLVQAGGSLRLSCAASGSIFYRNAMGWYIQATGKERELVAAISSDGSTNYADSVKGRFTISRDNAKNTVYLQMNSLKPEDTAVYFCAAPWTQILDYWGQGTQVTVSS | low polyreactivity

Row | Sequence | polyreactivity (PSR sort gate)
23 | QDQLVESGGGLVQAGGSLRLSCAASGSLFDLYAMGWYRQAPGKERELVAAISWSDSRTYYADSVKGRFTISRDNAKNTVYLQMNSLKPEDTAVYYCAADYRYPDNYGGYDYWGQGTQVTVSS | low polyreactivity
24 | QDQLVESGGGLVQAGGSLRLSCAASGSTFETNAMGWYRQAPGKERELVAAISGRGGSTYYADSVKGRFTFSRDNAKNTVYLQMNSLKPEDTAVFYCDATYGTGRRSKYGYCGQGTQVTVSS | high polyreactivity
25 | QDQLVESGGGLVQAGGSLRLSCAASGSTFGDYTMGSYRQAPGKEREFVAAITVSVGSTYFADSVKGRFTISRDTAKNTVYLQMNSVKPEDTAFYYCNTDRDPYYHYFDGLYYYWGQGTQVTVSS | low polyreactivity
26 | QDQLVESGGGLVQAGGSLRLSCAASGSTFGFNAMGWDRQAPGKERELVAAITWSGGSTYYADSVKGRFTISRDNAKNTVYLQMNSLKPEDTAVYYCARETYGDYVHYDYWGQGTQVTLSS | low polyreactivity
27 | QDQLVESGGGLVQAGGSLRLSCAASGSTFKKYALGWYRQAPGKERELVAAITGSGGRTYYADSVKGRFTISRDNAKNTVYLQMNSLKPEDTAVYYCAARRYLSGGYYYCGQGTQVTVSS | high polyreactivity
28 | QDQLVESGGGLVQAGGSLRLSCAASGSTFNAYAMGWYRQAPGKERQLVASITKSGGRTYYADSVKRRFTISRDNAKNTVYLQMNRLKPEDSAVYYCAARYVWRSTHHRGSTYDYWGQGTQVTVSS | high polyreactivity
29 | QDQLVESGGGLVQAGGSLRLSCAASGSTFNIYAMGWYRQAHGTVRELVARITSGGSTNYADSVKGRFTISRDNAKNTVYLQMKSLKPEDTAVYYCAARLKWGLPTYDYWGQGTQVTVSS | high polyreactivity
30 | QDQLVESGGGLVQAGGSLRLSCAASGSTFPYNVMGWYRQAPGKEREFVAAISSSSGSTYYADSVKGRFTISRDNAKNTVYLQLNSLKPEDTAVYYCARRHPRQRQDGKVDYWGQGTQVTVSS | low polyreactivity
31 | QDQLVESGGGLVQAGGSLRLSCAASGSTFRRYTMGWYRQAPGKERELVAVITKSGGSTYYADSVKGRFTISRDNAKNTVYLQMNRLKPEDTAVYYCAAGVAWRFYSWLGHFNGFDYWGQGTQVTVSS | high polyreactivity
32 | QDQLVESGGGLVQAGGSLRLSCAASGSTFSYYAMGWYRQAPGKERELVAAITWSDGSTYYADSVKGRFTISRDYAKNTVYLQMNSLKPEDTAVYYCNAEISQLDGVTFKYDYWGQGTQVTVSS | low polyreactivity
33 | QDQLVESGGGLVQAGGSLRLSCAASGSTFVKYAMGWYRQAAGTERELVASITKRGGSTYYADSVKGRFTISRDKAKNTVYLQMNSLKPEDTAVYYCNAARGLYNAPKYGSIGFDYWGQGTQVTESS | high polyreactivity
34 | QDQLVESGGGLVQAGGSLRLSCAASGSTFWFYAMGWSRQAPGKEWELVAVISNSGSTYYADSVKGRFTISRDNAKNTVYLQLNSLKPEDTAVYYCNTDGGGDSYWYDYWGQGTQVTVSS | low polyreactivity
35 | QDQLVESGGGLVQAGGSLRLSCAASGSTISGSAMGWYRQAPGKVRELVATMSRGGSTTYADSVKGRFTISRDNAKNTVYLQMNSLKPEDTAVYYCAAQTYVWWVKYHSGGQGTQVTVSS | low polyreactivity
36 | QDQLVESGGGLVQAGGSLRLSCAASGSTIYAYAMGWYRQAPGKERELVARIRWRGGRTYYADSVKGRFTISRDNAKNTVYLRMNSLKPEDTAVYYCAAYKRRSNGRYWTYDYWGQGTQVTVSS | high polyreactivity
37 | QDQLVESGGGLVQAGGSLRLSCAASGSTLAYNAKGWYRPAPGKERELVAGIRGSGGSTYYADSVKGRFTISRDNAKNTVYLLMNSLKPEDTAVYDCAAAGYYYYLYAAYYYWGQGTQVTVSS | low polyreactivity
38 | QDQLVESGGGLVQAGGSLRLSCAASRNIFYINTMGWYIQAPGKERALVAAIDASDGTTYYADSVKGRFTISRDNAKNTVYLQMNSVKPEDTAVYYCATRRGYDSVYYFYTLWYYYWGQGTQVTVSS | low polyreactivity
39 | QDQLVESGGGLVQAGGSLRLSCAASVITFDLYAMGWYRQAPGKERELVAAISISSTSTYYADSVKGLFTISRDNAKNTVYLQMISLKPEDTAGYYCNAVPSSKTFWFDYWGLGTQVTVSS | low polyreactivity
40 | QDQLVESGGGLVQAGGSLRLSCAASVSIFGYYAMGWYRQAHGKERELVADITSSGSTYYADSVKGRFTISRDNAKNTVYLQMNSLKPEDTAVYYCAADQYYLGSIDGFEYWGQGTQVTVSS | low polyreactivity
41 | QDQLVESGGGLVQAGGSLRLSCAAYGRTFVPYAMGWYRQAPGKEREFVAVITWGGGSTYYADSVKGRFTISRDNAKNTVYLQMNSLKPEDTAVYYCAARNRRATGLGSRYGYWGQGTQVTVSS | high polyreactivity
42 | QDQLVESGGGLVQAGGSLRLSCAAYGSIFYVYAMGWYRQAPGKERELVAAIRRTGSSTYYADSVKGRFTISRDNAKNTVSLQMNSLKPEDTAVYYCAASYWRARAGSYDYWGQGTQVTVSS | high polyreactivity
43 | QDQLVESGGGLVQAGGSLRLSCADYGNLVYNAKGWSRQAPGKERELVAAISARGGRTYYADSVKGRFTISRDNAKNTVYLQMNSLNPEDTAVYYCAARSYRLDSYYWGQGTQVSVSS | high polyreactivity
